The values that follow come from the supplement of paper PMC6755084.

First the molecules themselves.
B1: minF1; a variant is named by its letters at N, in order (parent)
chain: GAGACCGCAACTGAAAAGTTGTTNNNNAANNNNGGNTNNATTTCTGCACGTAGAAGCAAAAGGC

In the data set the parent is B1. In words: fraction ligated after 30 min (ligated reads / total reads); higher = more ligase activity. The settings on record: with F1*subA RNA substrate (template-directed ligation), 42 °C. The procedure:
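Chip-synthesised pool of minF1 ligase ribozyme variants (single and double substitutions, single to quadruple deletions, bulge and P2 designed variants) was transcribed with T7 and reacted as a pool with excess substrate F1*subA for 30 min at 42 C in 50 mM EPPS pH 8.5, 25 mM MgCl2. Ligated and unligated RNAs were separated by PAGE, barcoded by RT and deep sequenced; fraction ligated = ligated reads / total reads, relative activity = FL / FL of wild-type minF1 (0.76); sequencing FL correlated with PAGE (R2 = 0.98). Sequences are the DNA template of the ribozyme.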
GAGACCGCAACTGAAAAGTTGTATAGAAATGGGGGTTGAATTTCTGCACGTAGAAGCAAAAGGC: the fraction ligated is 0.000824.

As to GAGACCGCAACTGAAAAGTTGTTATGAAATGTGGGTTGAATTTCTGCACGTAGAAGCAAAAGGC, the fraction ligated worked out at 0.0027.

Regarding GAGACCGCAACTGAAAAGTTGTATCAGAAATGGGGTTGAATTTCTGCACGTAGAAGCAAAAGGC, the fraction ligated worked out at 0.0062.

For GAGACCGCAACTGAAAAGTTGTATCAAAATGGAGGTTGAATTTCTGCACGTAGAAGCAAAAGGC, the fraction ligated amounted to 0.00363.

With GAGACCGCAACTGAAAAGTTGTTATCAGAAATAGGGTTGATTTCTGCACGTAGAAGCAAAAGGC, the fraction ligated came to 0.00674.

On to GAGACCGCAACTGAAAAGTTGTTATAGAATGGTGGGTTGATTTCTGCACGTAGAAGCAAAAGGC, for which the fraction ligated was 0.00637.

Consider GAGACCGCAACTGAAAAGTTGTATCAGAAATAGGGTTGAATTTCTGCACGTAGAAGCAAAAGGC, for which the fraction ligated was 0.00511.

GAGACCGCAACTGAAAAGTTGTTTCAGAATGGAGGGTTGATTTCTGCACGTAGAAGCAAAAGGC: the fraction ligated worked out at 0.00572.

For GAGACCGCAACTGAAAAGTTGTATCGAAAGGATGGGTTAATTTCTGCACGTAGAAGCAAAAGGC, the fraction ligated worked out at 0.0024.

Turning to GAGACCGCAACTGAAAAGTTGTTATAGAAATGATGGTTAATTTCTGCACGTAGAAGCAAAAGGC, the fraction ligated came out at 0.0034.

GAGACCGCAACTGAAAAGTTGTTACAAAAGGAGGGTTGAATTTCTGCACGTAGAAGCAAAAGGC: the fraction ligated is 0.00357.

Consider GAGACCGCAACTGAAAAGTTGTTACAGAAAGGATGGTTGATTTCTGCACGTAGAAGCAAAAGGC, for which the fraction ligated was 0.00588.

Consider GAGACCGCAACTGAAAAGTTGTTATCAGAATGATGGGTTGTTTCTGCACGTAGAAGCAAAAGGC, for which the fraction ligated amounted to 0.000608.

Take GAGACCGCAACTGAAAAGTTGTTATCAAAATGGGGGTTAATTTCTGCACGTAGAAGCAAAAGGC: the fraction ligated is 0.00273.

Regarding GAGACCGCAACTGAAAAGTTGTTATCGAAATGAGGGTTAATTTCTGCACGTAGAAGCAAAAGGC, the fraction ligated is 0.00221.

GAGACCGCAACTGAAAAGTTGTTCAGAAAGATGGGTTGAATTTCTGCACGTAGAAGCAAAAGGC: the fraction ligated is 0.00372.

For GAGACCGCAACTGAAAAGTTGTTACGAAATATGGGTTGAATTTCTGCACGTAGAAGCAAAAGGC, the fraction ligated is 0.00174.

As for GAGACCGCAACTGAAAAGTTGTTTCAGATGGATGGGTTAATTTCTGCACGTAGAAGCAAAAGGC, the fraction ligated worked out at 0.000605.

With GAGACCGCAACTGAAAAGTTGTATAGAAAGGTGGGTTGAATTTCTGCACGTAGAAGCAAAAGGC, the fraction ligated was 0.00196.

Turning to GAGACCGCAACTGAAAAGTTGTATCAGAAGGATGGTTGAATTTCTGCACGTAGAAGCAAAAGGC, the fraction ligated stood at 0.000376.

In the case of GAGACCGCAACTGAAAAGTTGTTATCGAAATGGTGGGTTGTTTCTGCACGTAGAAGCAAAAGGC, the fraction ligated came to 0.00104.

Regarding GAGACCGCAACTGAAAAGTTGTTCAAAAGGATGGGTTGAATTTCTGCACGTAGAAGCAAAAGGC, the fraction ligated is 0.00439.

GAGACCGCAACTGAAAAGTTGTTCAGAATGGATGGGTTGATTTCTGCACGTAGAAGCAAAAGGC: the fraction ligated is 0.0108.

Consider GAGACCGCAACTGAAAAGTTGTTATCAGAGATGGGTTGAATTTCTGCACGTAGAAGCAAAAGGC, for which the fraction ligated was determined as 0.00527.

For GAGACCGCAACTGAAAAGTTGTATCAAAAGGTGGGTTGAATTTCTGCACGTAGAAGCAAAAGGC, the fraction ligated turned out to be 0.00305.

In the case of GAGACCGCAACTGAAAAGTTGTTATCAGAAATGGATGGTTTTTCTGCACGTAGAAGCAAAAGGC, the fraction ligated is 0.000969.

With GAGACCGCAACTGAAAAGTTGTATGAAATGGATGGGTTGATTTCTGCACGTAGAAGCAAAAGGC, the fraction ligated was 0.00766.

GAGACCGCAACTGAAAAGTTGTTATGAAAGGATGGGTTGATTTCTGCACGTAGAAGCAAAAGGC: the fraction ligated was 0.00619.

As to GAGACCGCAACTGAAAAGTTGTTATGAAATGGTGGGTTGATTTCTGCACGTAGAAGCAAAAGGC, the fraction ligated amounted to 0.00658.

For the variant GAGACCGCAACTGAAAAGTTGTTACGAAATGGATGGGTTATTTCTGCACGTAGAAGCAAAAGGC, the fraction ligated turned out to be 0.00155.

GAGACCGCAACTGAAAAGTTGTTATAAAATGGAGGTTGAATTTCTGCACGTAGAAGCAAAAGGC: the fraction ligated was 0.00189.

Consider GAGACCGCAACTGAAAAGTTGTTTCAGAATGGGGGTTGAATTTCTGCACGTAGAAGCAAAAGGC, for which the fraction ligated worked out at 0.00233.

For the variant GAGACCGCAACTGAAAAGTTGTACAAATGGATGGGTTGAATTTCTGCACGTAGAAGCAAAAGGC, the fraction ligated was determined as 0.0035.

Take GAGACCGCAACTGAAAAGTTGTTATCAGAAGGATGGTTGATTTCTGCACGTAGAAGCAAAAGGC: the fraction ligated is 0.00593.

As to GAGACCGCAACTGAAAAGTTGTTTCAGAAAGGATGGGTTGTTTCTGCACGTAGAAGCAAAAGGC, the fraction ligated worked out at 0.000453.

For the variant GAGACCGCAACTGAAAAGTTGTTATCAGAAGATGGTTGAATTTCTGCACGTAGAAGCAAAAGGC, the fraction ligated is 0.00251.

Turning to GAGACCGCAACTGAAAAGTTGTTCAGAAAGGAGGGTTGAATTTCTGCACGTAGAAGCAAAAGGC, the fraction ligated is 0.0058.

Consider GAGACCGCAACTGAAAAGTTGTTACAGATGGATGGGTTGATTTCTGCACGTAGAAGCAAAAGGC, for which the fraction ligated came out at 0.00794.

Take GAGACCGCAACTGAAAAGTTGTTATCGAAATTGGGTTGAATTTCTGCACGTAGAAGCAAAAGGC: the fraction ligated was found to be 0.00257.

Take GAGACCGCAACTGAAAAGTTGTAAGAAATGGATGGGTTGATTTCTGCACGTAGAAGCAAAAGGC: the fraction ligated is 0.00517.

Take GAGACCGCAACTGAAAAGTTGTTATAGAAGGTGGGTTGAATTTCTGCACGTAGAAGCAAAAGGC: the fraction ligated turned out to be 0.00288.

Regarding GAGACCGCAACTGAAAAGTTGTTAAGAAATGGTGGGTTGATTTCTGCACGTAGAAGCAAAAGGC, the fraction ligated was determined as 0.00357.
